The text below walks through data of article PMC9376891.

The test deals with Rae1(31-368)-Nup98(157-213) heterodimer (human), P78406. Kind of test: ITC. Background: ITC needs no label: the signal is the heat of the interaction.

A word on the Kd: it is the equilibrium constant for the complex coming apart.

B1: VSV M NTE peptide (peptide)
chain: DEMDTHDPNQLRY
modifications: not checked
As for B1, the Kd amounted to 117 µM.
